In publication doi:10.1101/2024.06.25.600625 (bioRxiv, 2024):

T1: N-terminally FlAsH-labeled CDC37 (UniProt Q16543 1-378, FlAsH-EDT2 label on the N-terminal tetra-cysteine tag)
T1 sequence: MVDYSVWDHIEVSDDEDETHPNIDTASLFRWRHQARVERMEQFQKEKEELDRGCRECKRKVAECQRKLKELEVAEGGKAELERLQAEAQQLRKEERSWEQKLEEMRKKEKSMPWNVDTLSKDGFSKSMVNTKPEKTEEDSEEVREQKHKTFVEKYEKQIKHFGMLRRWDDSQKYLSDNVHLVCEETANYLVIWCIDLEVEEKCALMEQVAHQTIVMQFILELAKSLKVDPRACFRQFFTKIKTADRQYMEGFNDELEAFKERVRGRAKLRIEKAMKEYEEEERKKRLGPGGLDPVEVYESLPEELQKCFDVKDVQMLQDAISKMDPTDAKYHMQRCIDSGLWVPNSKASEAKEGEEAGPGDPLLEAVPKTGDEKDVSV

B1: C-terminally FlAsH-labeled p23 (natural protein)
chain: MQPASAKWYDRRDYVFIEFCVEDSKDVNVNFEKSKLTFSCLGGSDNFKHLNEIDLFHCIDPNDSKHKRTDRSILCCLRKGESGQSWPRLTKERAKLNWLSVDFNNWKDWEDDSDEDMSNFDRFSEMMNNMGGDEDVDLPEVDGADDDSQDSDDEKMPDLE
modifications: FlAsH-EDT2 label on the C-terminal tetra-cysteine tag
B2: unlabeled p23 (natural protein)
chain: B1 chain
B3: human Hsp90α Y38E,Y61F,Y197E (natural protein)
chain: not shown
B4: human Hsp90α Y38F,Y61E,Y197E (natural protein)
chain: not shown
B5: human Hsp90α Y38E (natural protein)
chain: not shown
B6: human Hsp90α Y38F,Y61F,Y197E (natural protein)
chain: not shown

Key:
Assay in all cases: fluorescence polarisation
human Hsp90α Y38F = human Hsp90α Y38F (human, UniProt P07900 1-732, Y38F)
human Hsp90α Y197E = human Hsp90α Y197E (human, UniProt P07900 1-732, Y197E)
[1] = molecular target: human Hsp90α Y38F,Y61F,Y197F (human, UniProt P07900 1-732, Y38F | Y61F | Y197F)
[2] = molecular target: B3
human Hsp90α Y61F = human Hsp90α Y61F (human, UniProt P07900 1-732, Y61F)
[3] = molecular target: B6
human Hsp90α Y197F = human Hsp90α Y197F (human, UniProt P07900 1-732, Y197F)
wild-type human Hsp90α = wild-type human Hsp90α (human, UniProt P07900 1-732)
[4] = molecular target: B4
human Hsp90α Y61E = human Hsp90α Y61E (human, UniProt P07900 1-732, Y61E)
[5] = molecular target: T1, N-terminally FlAsH-labeled CDC37
[6] = molecular target: B1

Binder: B1
binding result (human Hsp90α Y38F): binds
binding result (human Hsp90α Y197E): binds
binding result [1]: binds
binding result [2]: binds
binding result (human Hsp90α Y61F): binds
binding result [3]: binds
binding result (human Hsp90α Y197F): binds
binding result (wild-type human Hsp90α): binds
binding result [4]: binds
binding result (human Hsp90α Y61E): binds

Binder: B2
binding result (wild-type human Hsp90α): binds

Binder: B3
fold increase of KD against all other Hsp90 variants [5]: 2 fold

Binder: B4
fold increase of KD against all other Hsp90 variants [5]: 2 fold

Binder: B5
fold increase of KD (reference not named, wild type implied) [6]: 3.5 fold

Binder: B6
fold increase of KD against all other Hsp90 variants [5]: 2 fold
